Assay [1] has as its target T1, human LAMP1 at the cell surface (human, UniProt P11279 29-417).
T1 construct: native on tumour cells (PDX, Colo205, SW480, LS174T) or from the cloned CDS NM_005561.3 in HEK293 and HCT116; signal peptide 1-28 left out; also called huLAMP1; full length human LAMP1
T1 sequence: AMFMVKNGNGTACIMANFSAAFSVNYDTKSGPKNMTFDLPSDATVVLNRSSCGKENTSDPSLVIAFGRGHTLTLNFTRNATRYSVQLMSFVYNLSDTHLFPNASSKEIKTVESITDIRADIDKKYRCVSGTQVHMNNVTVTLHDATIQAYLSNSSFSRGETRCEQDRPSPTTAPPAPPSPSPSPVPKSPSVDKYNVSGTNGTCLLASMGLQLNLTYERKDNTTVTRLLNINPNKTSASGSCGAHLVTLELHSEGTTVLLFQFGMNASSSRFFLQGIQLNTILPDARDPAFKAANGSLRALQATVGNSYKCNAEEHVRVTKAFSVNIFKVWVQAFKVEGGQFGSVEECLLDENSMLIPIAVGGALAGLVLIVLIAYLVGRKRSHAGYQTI
Description: flow cytometry, dissociated CR-IGR-034P colon PDX cells. On the procedure: Advanced human primary colon tumor CR-IGR-034P was obtained from Patient-derived xenograft in mice. Tumor CR-IGR-034P was enzymatically dissociated using collagenase Type IV (Invitrogen; #17104-019) and deoxyribonuclease I (Invitrogen; #18047-019) for 1 h at 4° C. Cell viability was estimated by Viacount application using Guava® easyCyte™ 8HT Flow Cytometry System. […] 100 μL/well of goat anti-mouse IgG conjugated with Alexa647 (Invitrogen; # A2135) or goat anti-human IgG conjugated with Alexa488 (Invitrogen; # A11013) was added for 45 min at 4° C. and washed three times with PBS 1% BSA. The antibody binding was evaluated after centrifugation and resuspension of cells by adding 200 μl/well PBS 1% BSA and read using Guava® easyCyte™ 8HT Flow Cytometry System. EC50 values were estimated using BIOST@T-SPEED software.

In a further assay the target is T2, LAMP1::histag (human, UniProt P11279 29-382).
T2 construct: extracellular domain without signal peptide, C-terminal 6 His tag, made in HEK293 cells; also called recombinant human LAMP1; human LAMP1 (29-382)
T2 sequence: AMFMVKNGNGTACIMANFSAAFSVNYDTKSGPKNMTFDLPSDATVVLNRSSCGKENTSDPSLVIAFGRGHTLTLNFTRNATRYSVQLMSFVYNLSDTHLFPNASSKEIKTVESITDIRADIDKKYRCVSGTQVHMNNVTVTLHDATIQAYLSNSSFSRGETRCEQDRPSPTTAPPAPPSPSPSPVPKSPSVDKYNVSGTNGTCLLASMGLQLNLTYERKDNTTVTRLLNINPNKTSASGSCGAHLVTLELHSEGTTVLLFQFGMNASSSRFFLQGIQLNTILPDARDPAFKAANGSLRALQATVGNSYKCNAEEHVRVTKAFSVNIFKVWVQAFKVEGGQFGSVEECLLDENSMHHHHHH
The assay can be described thus: SPR (BIAcore 2000), mAb captured by anti-Fc, LAMP1 injected 1 to 256 nM. How it is done:
The binding kinetics of the murine, chimer or humanized anti-LAMP1 mAbs were determined by surface plasmon resonance assay using a BIAcore 2000 (BIAcore Inc., Uppsala, N.J.). […] A mouse anti-αhuman Fc IgG1 (BIAcore #BR-1008-39) and rabbit anti-αmurine Fc IgG1 (BIAcore #BR-1008-38) (50 μg/mL in […], pH5) were immobilized on the activated chips in all flow cells. The immobilization was carried out at a flow rate of 10 μL/min up to saturation. The chip was then blocked by injection of 70 μL of ethanolamine-HCl, pH 8.5, followed by one wash with 3 M MgCl₂ for anti-αhuman Fc IgG1 and one wash with 10 mM Glycine-HCl pH 1.7 for anti-αmurine Fc IgG1. To measure the binding of anti-LAMP1 mAbs to LAMP1, antibodies were used at 1-5 μg/mL in BIAcore running buffer (HBS-EP). […] Following completion of the injection phase, dissociation was monitored in a BIAcore running buffer at the same flow rate for 600 sec. […] Individual sensorgrams were analyzed using BIAevaluation software.

In assay [2] the target is T3, recombinant human LAMP2 with a C-terminal 10 His-tag (human, UniProt P13473 29-375).
T3 construct: bought; also called soluble LAMP2 protein (R&D Systems 6228-LM)
Description: ELISA on coated LAMP2. How it is done: LAMP2 is the closest member of the LAMP family with 35% sequence identity to LAMP1. […] Anti-LAMP1 antibodies were added to the plates and detected by using rabbit anti-mouse IgG conjugated with horseradish peroxidase (Sigma; #A9044). Antibody binding was visualized by adding TMB-H₂O₂ buffer and read at a wavelength of 450 nm.

A further assay concerns the target T4, LAMP1_mseq5_ΔGYQTI (human; mouse).
T4 construct: on cells; also called pXL6017
The assay can be described thus: flow cytometry, transfected 293-F cells.

For another assay, the target named is T5, LAMP1_mseq2_ΔGYQTI (human; mouse).
T5 construct: on cells; also called pXL6013
Description: flow cytometry, transfected 293-F cells.

Another assay concerns the target T6, hLAMP1_ΔGYQTI (human, UniProt P11279 29-412).
T6 construct: also called pXL5626
T6 sequence: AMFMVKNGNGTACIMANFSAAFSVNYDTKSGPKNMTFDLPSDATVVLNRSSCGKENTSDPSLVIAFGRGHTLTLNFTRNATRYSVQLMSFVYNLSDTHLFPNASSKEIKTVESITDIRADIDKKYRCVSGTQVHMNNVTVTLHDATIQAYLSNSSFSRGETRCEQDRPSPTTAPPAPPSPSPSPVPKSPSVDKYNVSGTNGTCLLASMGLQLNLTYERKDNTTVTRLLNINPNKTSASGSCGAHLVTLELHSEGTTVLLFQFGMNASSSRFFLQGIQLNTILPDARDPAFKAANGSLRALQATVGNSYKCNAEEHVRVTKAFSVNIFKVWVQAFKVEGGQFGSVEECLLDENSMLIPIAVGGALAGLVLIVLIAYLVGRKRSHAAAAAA
The assay can be described thus: flow cytometry, transfected 293-F cells.

For another assay, the target named is T7, LAMP1_mseq3_ΔGYQTI (human; mouse).
T7 construct: on cells; also called pXL6014
The assay can be described thus: flow cytometry, transfected 293-F cells.

Another assay addresses T8, LAMP1_mseq1_ΔGYQTI (mouse; human).
T8 construct: on cells; also called pXL6012
Description: flow cytometry, transfected 293-F cells.

T3 sequence (P13473 other isoform, or with tags, fused parts or gaps): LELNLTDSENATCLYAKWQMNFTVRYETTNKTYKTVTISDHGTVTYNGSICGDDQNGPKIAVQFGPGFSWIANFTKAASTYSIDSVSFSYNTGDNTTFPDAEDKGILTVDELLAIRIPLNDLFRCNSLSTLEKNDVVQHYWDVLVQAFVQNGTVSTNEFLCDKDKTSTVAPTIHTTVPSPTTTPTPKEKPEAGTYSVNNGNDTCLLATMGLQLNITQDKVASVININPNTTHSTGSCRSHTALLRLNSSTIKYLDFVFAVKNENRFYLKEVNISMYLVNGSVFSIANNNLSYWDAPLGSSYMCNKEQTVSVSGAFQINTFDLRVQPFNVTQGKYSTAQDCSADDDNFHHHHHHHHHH

B1: MAb3 (antibody, V domains shown)
VH: QIQLVQSGPELKKPGETVKISCKASGYIFTNYGMNWVKQAPGKGLKWMGWINTYTGESRYADDFKGRFALSLETSASTAYLQINNLENEDMATYFCAREDYYGNSPWFFDVWGAGTTVTVSS
VL: DIQMTQTTSSLSASLGDRVTISCNASQGINKYLNWYQQKPDGTVKLLIYYTSTLHSGVPSRFSGSGSGTDYSLTINNLEPEDIATYYCQQYTKLPFTFGSGTKLEIK
notes: murine monoclonal IgG, kappa, from hybridoma; also called murine MAb3
Regarding B1, the concentration giving a half-maximal response (EC50) in assay [1] worked out at 6 nM. For the same molecule, in the assay with LAMP1::histag, the Kd came out at 4.7 nM. Further, the binding result in assay [2] is reported as “no binding”. Further, the mean fluorescence was found to be 721 with LAMP1_mseq5_ΔGYQTI, 803 in the assay with LAMP1_mseq2_ΔGYQTI, 749 in the assay with hLAMP1_ΔGYQTI and 674 with LAMP1_mseq3_ΔGYQTI.

B2: MAb2 (antibody, mouse IgG1, kappa)
heavy: QVQLQQSAAELARPGASVKMSCKASGYTFTSYTMHWVKQRPGQGLEWIGYFNPSSGYPEYNQKFKDKTTLTADKSSNTAFIQLNSLTSEDSAVYYCSRGYYYGSRGYALDFWGQGASVTVSSAKTTPPSVYPLAPGSAAQTNSMVTLGCLVKGYFPEPVTVTWNSGSLSSGVHTFPAVLQSDLYTLSSSVTVPSSTWPSETVTCNVAHPASSTKVDKKIVPRDCGCKPCICTVPEVSSVFIFPPKPKDVLTITLTPKVTCVVVDISKDDPEVQFSWFVDDVEVHTAQTQPREEQFNSTFRSVSELPIMHQDWLNGKEFKCRVNSAAFPAPIEKTISKTKGRPKAPQVYTIPPPKEQMAKDKVSLTCMITDFFPEDITVEWQWNGQPAENYKNTQPIMDTDGSYFVYSKLNVQKSNWEAGNTFTCSVLHEGLHNHHTEKSLSHSPGK
light: NIVLTQSPVSLAVSLGQRATISCRASESVDINGNTFMHWYQQKPGQSPKLVIYAASNIESGVPARFSGSGSSTDFTFTIDPVEADDVATYYCQQNIEDPWTFGGGTKVEIKRADAAPTVSIFPPSSEQLTSGGASVVCFLNNFYPKDINVKWKIDGSERQNGVLNSWTDQDSKDSTYSMSSTLTLTKDEYERHNSYTCEATHKTSTSPIVKSFNRNEC
notes: murine monoclonal IgG, kappa, from hybridoma; also called murine MAb2
As to B2, the response in assay [1] was half-maximal at 14 nM (EC50). In addition, the Kd with LAMP1::histag was found to be 63.5 nM. For the same molecule, the binding result in assay [2] is reported as “no binding”. In addition, the mean fluorescence worked out at 105 with LAMP1_mseq1_ΔGYQTI; 629 with LAMP1_mseq5_ΔGYQTI; 694 in the assay with LAMP1_mseq2_ΔGYQTI; 757 with hLAMP1_ΔGYQTI; 694 with LAMP1_mseq3_ΔGYQTI.

B3: huMAb1_1 (antibody, human IgG1, kappa)
heavy: not shown
light: DIQMTQSPSSLSASVGDRVTITCKASQDIDRYMAWYQDKPGKAPRLLIHDTSTLQSGVPSRFSGSGSGRDYTLTISNLEPEDFATYYCLQYDNLWTFGGGTKVEIKRTVAAPSVFIFPPSDEQLKSGTASVVCLLNNFYPREAKVQWKVDNALQSGNSQESVTEQDSKDSTYSLSSTLTLSKADYEKHKVYACEVTHQGLSSPVTKSFNRGEC
notes: humanized, VH1-huIgG1 and VL1-huCk
In turn, B3 showed a dissociation constant (Kd) with LAMP1::histag of 8.2 nM.

B4: MAb1 (antibody, mouse IgG2a, kappa)
heavy: QVQLQQSGAELVKPGASVKMSCKASGYIFTNYNIHWVKKSPGQGLEWIGAIYPGNGDAPYSQKFKDKATLTADKSSSTTYMQLSRLTSEDSAVYYCVRANWDVAFAYWGQGTLVSVSAAKTTAPSVYPLAPVCGDTTGSSVTLGCLVKGYFPEPVTLTWNSGSLSSGVHTFPAVLQSDLYTLSSSVTVTSSTWPSQSITCNVAHPASSTKVDKKIEPRGPTIKPCPPCKCPAPNLLGGPSVFIFPPKIKDVLMISLSPIVTCVVVDVSEDDPDVQISWFVNNVEVHTAQTQTHREDYNSTLRVVSALPIQHQDWMSGKEFKCKVNNKDLPAPIERTISKPKGSVRAPQVYVLPPPEEEMTKKQVTLTCMVTDFMPEDIYVEWTNNGKTELNYKNTEPVLDSDGSYFMYSKLRVEKKNWVERNSYSCSVVHEGLHNHHTTKSFSRTPGK
light: DIQMTQSPPSLSASLGGKVTITCKASQDIDRYMAWYQDKPGKGPRLLIHDTSTLQPGIPSRFSGSGSGRDYSFSISNLEPEDIATYYCLQYDNLWTFGGGTKLEIKRADAAPTVSIFPPSSEQLTSGGASVVCFLNNFYPKDINVKWKIDGSERQNGVLNSWTDQDSKDSTYSMSSTLTLTKDEYERHNSYTCEATHKTSTSPIVKSFNRNEC
notes: murine monoclonal IgG, kappa, from hybridoma; also called murine MAb1
In the assay with LAMP1::histag, B4 came in with a dissociation constant (Kd) of 4.8 nM. Also, the binding result in assay [2] is reported as “no binding”. In addition, the mean fluorescence with LAMP1_mseq1_ΔGYQTI was found to be 1030; with LAMP1_mseq5_ΔGYQTI, 846; in the assay with LAMP1_mseq2_ΔGYQTI, 990; in the assay with hLAMP1_ΔGYQTI, 914; with LAMP1_mseq3_ΔGYQTI, 888.

Source of the values: patent publication US20180142032A1 (Sanofi, published 2018).
